Laboratory results reported in US20240287172A1 (SCIRHOM, published 2024).

T1: hiR2-FL-D538L-T7 (human, UniProt Q6PJF5 1-856)
T1 sequence: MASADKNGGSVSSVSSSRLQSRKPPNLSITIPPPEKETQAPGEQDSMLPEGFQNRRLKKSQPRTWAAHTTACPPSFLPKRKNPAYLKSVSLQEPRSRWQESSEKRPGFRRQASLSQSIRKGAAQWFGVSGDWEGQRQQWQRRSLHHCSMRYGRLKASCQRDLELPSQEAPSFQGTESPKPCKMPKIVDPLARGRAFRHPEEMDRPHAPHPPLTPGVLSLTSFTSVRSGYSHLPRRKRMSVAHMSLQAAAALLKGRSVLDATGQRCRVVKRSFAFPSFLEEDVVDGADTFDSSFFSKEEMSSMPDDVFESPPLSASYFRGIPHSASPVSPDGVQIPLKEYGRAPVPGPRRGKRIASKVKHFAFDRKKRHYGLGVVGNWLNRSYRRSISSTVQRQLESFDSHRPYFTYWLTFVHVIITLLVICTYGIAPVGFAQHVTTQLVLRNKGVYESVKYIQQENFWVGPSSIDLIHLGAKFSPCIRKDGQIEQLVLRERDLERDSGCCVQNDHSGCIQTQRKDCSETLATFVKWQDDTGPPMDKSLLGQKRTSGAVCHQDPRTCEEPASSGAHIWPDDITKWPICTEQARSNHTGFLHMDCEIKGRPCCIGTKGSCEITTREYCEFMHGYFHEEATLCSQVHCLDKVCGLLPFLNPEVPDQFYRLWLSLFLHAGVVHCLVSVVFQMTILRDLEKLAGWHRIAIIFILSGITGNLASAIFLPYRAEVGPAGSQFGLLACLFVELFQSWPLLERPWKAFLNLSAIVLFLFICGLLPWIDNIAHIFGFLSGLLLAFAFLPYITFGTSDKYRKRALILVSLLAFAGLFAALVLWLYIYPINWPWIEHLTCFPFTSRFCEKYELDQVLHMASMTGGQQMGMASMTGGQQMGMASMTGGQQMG

T2: hiR2-FL-S545F-T7 (human, UniProt Q6PJF5 1-856)
T2 sequence: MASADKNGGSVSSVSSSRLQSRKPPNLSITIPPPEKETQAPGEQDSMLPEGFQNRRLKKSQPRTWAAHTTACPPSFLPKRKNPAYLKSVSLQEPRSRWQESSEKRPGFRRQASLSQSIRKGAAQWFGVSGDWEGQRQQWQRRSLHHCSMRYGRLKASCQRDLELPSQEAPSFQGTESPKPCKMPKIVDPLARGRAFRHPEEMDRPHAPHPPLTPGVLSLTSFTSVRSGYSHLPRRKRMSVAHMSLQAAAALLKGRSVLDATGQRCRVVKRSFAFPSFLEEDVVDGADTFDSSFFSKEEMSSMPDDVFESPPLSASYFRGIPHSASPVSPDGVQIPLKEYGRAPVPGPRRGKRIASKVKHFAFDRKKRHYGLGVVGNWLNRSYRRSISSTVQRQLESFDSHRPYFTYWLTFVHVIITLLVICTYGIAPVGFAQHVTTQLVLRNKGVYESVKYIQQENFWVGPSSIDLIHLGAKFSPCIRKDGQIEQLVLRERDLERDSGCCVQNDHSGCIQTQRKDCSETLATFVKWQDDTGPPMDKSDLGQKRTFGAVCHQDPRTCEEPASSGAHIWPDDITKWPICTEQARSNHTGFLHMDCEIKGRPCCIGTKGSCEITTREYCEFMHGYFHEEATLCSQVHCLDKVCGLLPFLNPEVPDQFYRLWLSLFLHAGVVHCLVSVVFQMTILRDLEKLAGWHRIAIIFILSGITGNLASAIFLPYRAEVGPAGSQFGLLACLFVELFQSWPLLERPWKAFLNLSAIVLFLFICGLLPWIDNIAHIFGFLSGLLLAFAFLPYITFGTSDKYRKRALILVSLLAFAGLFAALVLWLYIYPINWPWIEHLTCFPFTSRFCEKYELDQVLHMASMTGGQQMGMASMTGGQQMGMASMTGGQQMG

T3: human iRhom1, endogenously expressed (human, UniProt Q96CC6 1-855)
T3 construct: also called iRhom1 on RH-30 cells
T3 sequence: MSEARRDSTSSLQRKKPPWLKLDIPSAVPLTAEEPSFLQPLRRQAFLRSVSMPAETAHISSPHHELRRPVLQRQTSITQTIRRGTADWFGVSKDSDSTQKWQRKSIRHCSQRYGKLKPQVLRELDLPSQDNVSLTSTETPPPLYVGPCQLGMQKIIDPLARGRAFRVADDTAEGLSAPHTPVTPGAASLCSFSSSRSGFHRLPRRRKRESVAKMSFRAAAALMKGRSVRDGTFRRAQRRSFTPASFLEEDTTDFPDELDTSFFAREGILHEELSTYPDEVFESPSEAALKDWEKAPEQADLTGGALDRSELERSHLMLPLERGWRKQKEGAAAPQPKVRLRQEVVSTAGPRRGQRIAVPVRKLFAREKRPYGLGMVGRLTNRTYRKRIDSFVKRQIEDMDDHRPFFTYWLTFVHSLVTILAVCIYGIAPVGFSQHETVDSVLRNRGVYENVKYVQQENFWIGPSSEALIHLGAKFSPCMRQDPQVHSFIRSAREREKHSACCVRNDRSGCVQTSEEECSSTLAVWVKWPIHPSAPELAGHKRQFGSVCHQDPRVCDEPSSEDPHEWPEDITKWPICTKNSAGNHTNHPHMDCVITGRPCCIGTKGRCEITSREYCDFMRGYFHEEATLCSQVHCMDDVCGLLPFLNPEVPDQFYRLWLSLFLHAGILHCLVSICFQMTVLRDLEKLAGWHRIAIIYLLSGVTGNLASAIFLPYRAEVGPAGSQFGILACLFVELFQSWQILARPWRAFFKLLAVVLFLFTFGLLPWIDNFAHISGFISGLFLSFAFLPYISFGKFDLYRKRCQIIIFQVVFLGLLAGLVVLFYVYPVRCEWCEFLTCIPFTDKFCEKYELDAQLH


Experiments:
hiR2-FL-D538L-T7 = biological target: T1, hiR2-FL-D538L-T7; test: FACS, MEF-DKO cells, 3 µg/ml
hiR2-FL-S545F-T7 = biological target: T2, hiR2-FL-S545F-T7; test: FACS, MEF-DKO cells, 3 µg/ml
[1] = biological target: T3, human iRhom1, endogenously expressed; test: FACS on RH-30 cells (iRhom1-positive, not iRhom2-positive)

| Binder | loss of binding vs wild type (hiR2-FL-D538L-T7) [%] | loss of binding vs wild type (hiR2-FL-S545F-T7) [%] | binding result [1] |
| --- | --- | --- | --- |
| antibody 48 (antibody, V domains shown, mouse IgG, kappa light chain; also called clone #48; purified antibody 48) VH: QVQLQQSGTELVRPGTSVKVSCKASGYAFTNYLIEWVKQRPGQGLEWIGVINPGSGFTKYNEKFKGKATLTADKSSSTVYMHLSSLTSEDSAVYFCARGLYRAMDYWGQGTSVTVSS VL: DIQMTQSPASQSASLGESVTITCLASQTIATWLAWYQQKPGKSPQLLIYGATTLADGVPSRFSGGGSGTKFSFKISSLQAEDFVSYYCQQLYSTPYTFGGGTKLEIK | ≥ 30 | ≥ 30 | – |
| antibody 16 (antibody, V domains shown, mouse IgG, kappa light chain; also called clone #16; purified antibody 16) VH: QVTLKESGPGILQPSQTLSLTCSFSGFSLSTFALGVGWIRQPSGRGLEWLAHIWWDDDKYYNPALKSRLTISKDTSKNHVFLKIANVDTADTATYYCARITTYYYGMDYWGQGTSVTVSS VL: DIVLSQSPATLSVTPGDSVSLFCRASQSIGNHLHWYQQESHASPRLLIKYASQSISGIPSRFSGSGSGTDFTLSINSVETEDFGMYFCQQSYNWPLTFGAGTKLELK | – | – | no binding (tested: 3 µg/ml) |
